From US12723255B2, “Herbicide tolerance genes and methods of use thereof” (priority 2014, dated 2026)
Where a chain is given by its changes, count along the chain named. Where two headings read alike, the source gives them in different places.

Legend:
[1] = kinetic analysis, non-endpoint assay at 23° C.; type: biochemical; settings: standard error in parenthetical
Excerpt: For the fifth screen, recombinant protein for each of the eleven engineered proteins was produced and purified for an in-depth biochemical analysis. This biochemical analysis included: (1) kinetic analysis (Vmax and Km), (2) activity assays over a range of temperatures, (3) protein melting analysis, (4) activity on additional AOPP herbicides substrates, and (5) mass spectrometry analysis on peptides to confirm identity. The biochemical analyses were also done with purified recombinant wild-type protein and MON-HT55 protein for comparison. For the kinetic analysis, a non-endpoint assay was conducted at 23° C. with either quizalofop-P or 2,4-D as substrate. The recombinant proteins for these assays were produced in bacteria and purified using a 6-His tag fused at the C-terminal end of the protein. Results of the kinetic analysis with either quizalofop-P or 2,4-D as substrate are presented for ten of the engineered proteins, wild-type protein, and MON-HT55 protein in Table 7 (standard error is shown in parenthetical). Vmax is expressed as specific activity, umol herbicide product mg enzyme-1 min-1; Km expressed as mM herbicide substrate. […] The differentiation of the protein kinetics for MON-HTI and MON-HT7 were surprising because there are only four amino acid differences between MON-HT1 and MON-HT7. Specifically, MON-HT1 has the following amino acids at the indicated position: 182; F105; T112; and V273, and MON-HT7 has the following amino acids at the indicated position: L82; V105; S112; and A273.
Kinetic analysis using a non-endpoint assay was conducted at 23° C. with either quizalofop-P or 2,4-D as substrate, as detailed above for purified protein of the wild-type enzyme, MON-HT1, MON-HT13, MON-HT15, and MON-HT17.

F1 hybrid maize plants = assay: efficacy field trial with segregating F1 hybrid plants; type: in vivo; settings: for % Injury from V4 2,4-D / % Injury from V8 2,4-D: 2,4-D amine 2× at VE-V2 (plus quizalofop-P 0.5×), V4, V8; for % Injury from V4 Quizalofop / % Injury from V8 Quizalofop: quizalofop-P 2× at VE-V2, V4, V8
Experimental: Ten unique engineered proteins optimized for activity at higher temperatures were selected for maize transformation and analysis in plants. DNA constructs were produced for expressing these engineered proteins with codon usage optimized for monocot expression using methods known to those skilled in the art. Enhancers, promoters, leaders, introns, CTPs, and 3′UTRs were tested in various combinations with the engineered proteins in these DNA constructs. The DNA constructs were used to transform immature maize (LH244) embryos with these vectors using Agrobacterium tumifaciens and standard methods known in the art. Regenerated R0 transgenic plantlets were grown in the green house.
Transgenic R0 maize plants were screened by the application of quizalofop-P (2×) plus 2,4-D (2×) at 7 to 10 days following transplant into plugs (generally corresponding to V3-V4 growth stage). All constructs tested produced plants containing unique events that passed the RO screen. The R0 plants were selfed to generate R1 homozygous seed and the R0 was also used as the male to cross with inbred plants containing maize event MON89034 to generate segregating F1 hybrid seed for efficacy field trials.
An efficacy field trial was conducted with segregating F1 hybrid plants, with 50% hemizygous and 50% null for the transgene. Tolerance to quizalofop-P (2×) plus 2,4-D (2×) was assessed using two herbicide application regimens: (1) quizalofop-P (Assure II) at 0.16 lb ai/acre (2×) plus 0.25% v/v non-ionic surfactant (NIS) applied at VE-V2 growth stage followed by the same at V4 growth stage followed by the same at V8 growth stage and (2) 2,4-D amine at 2 lb ae/acre (2×) plus quizalofop-P at 0.04 lb ai/acre (0.5×) plus 0.25% v/v NIS applied at VE-V2 growth stage followed by 2,4-D amine at 2 lb ae/acre (2×) plus 0.25% v/v NIS applied at V4 growth stage followed by the same at V8 growth stage. The 50% of the plants that were null for transgene were removed by the first quizalofop-P application at VE-V2 growth stage. Plots were visually rated 10-14 days after application for crop injury on a scale of 0 to 100 with “0” being none and “100” being complete crop destruction. […] The percentage injury rating with 2× application of 2,4-D at V8 growth stage ranged from a high of 40% to a low of 0. Similarly, the percentage injury rating with 2× application of quizalofop-P at V8 growth stage ranged from a high of 90% to a low of 0. Variation in injury rating between plants expressing the same protein is likely due to variations in construct design or transgene insertion location.

[2] = 23° C., purified His-tagged protein
[3] = 23° C., purified His-tagged protein, read-out: Km Quizalofop
[4] = NDB = activity not robust enough for kinetic characterization

B1: MON-HT8: engineered oxygenase protein, amino acid sequence SEQ ID NO:37 (protein)
chain: MHAALTPLTNKYRFIDVQPLTGVLGAEITGVDLREPLDDSTWNEILDAFHTYQVIYFPGQAITNEQHIAFSRRFGPVDPVPILKSIEGYPEVQMIRREANESGRVIGDDWHTDSTFLDAPPAAVVMRAIEVPEYGGDTGFLSMYSAWETLSPTMQATIEGLNVVHSATKVFGSLYQATNWRFSNTSVKVMDVDAGDRETVHPLVVTHPVTGRRALYCNQVYCQKIQGMTDAESKSLLQFLYEHATKFDFTCRVRWKKDQVLVWDNLCTMHRSVPDYGNAFRYLTRTTVAGDKPSR
Question: For B1, which “Vmax Quizalofop” value [1, 2] is on record?
Answer: 0.46 (−0.02) umol herbicide product mg enzyme-1 min-1

Question: What about the Km [1, 3] of the same molecule?
Answer: 110 µM

Question: And the “Vmax 2,4-D” value [1, 4]?
Answer: 0.11 (−0.01) umol herbicide product mg enzyme-1 min-1

Question: And the Km ([1]; NDB = activity not robust enough for kinetic characterization, read-out: Km 2,4-D)?
Answer: 140 µM

Question: And the “% Injury from V4 2,4-D” value (F1 hybrid maize plants; CTP A)?
Answer: 10%

Question: What about the “% Injury from V8 2,4-D” value (F1 hybrid maize plants; CTP A) of the same molecule?
Answer: 10%

Question: What about the “% Injury from V4 Quizalofop” value (F1 hybrid maize plants; CTP A) of the same molecule?
Answer: 1.25%

Question: And the “% Injury from V8 Quizalofop” value (F1 hybrid maize plants; CTP A)?
Answer: 1.25%

Question: And the “% Injury from V4 2,4-D” value (F1 hybrid maize plants; CTP B)?
Answer: 12.5%

Question: And the “% Injury from V8 2,4-D” value (F1 hybrid maize plants; CTP B)?
Answer: 11.67%

Question: And the “% Injury from V4 Quizalofop” value (F1 hybrid maize plants; CTP B)?
Answer: 9.17%

Question: What about the “% Injury from V8 Quizalofop” value (F1 hybrid maize plants; CTP B) of the same molecule?
Answer: 8.33%

Question: And the “% Injury from V4 2,4-D” value (F1 hybrid maize plants; CTP C)?
Answer: 20%

Question: And the “% Injury from V8 2,4-D” value (F1 hybrid maize plants; CTP C)?
Answer: 21.25%

Question: And the “% Injury from V4 Quizalofop” value (F1 hybrid maize plants; CTP C)?
Answer: 30%

Question: And the “% Injury from V8 Quizalofop” value (F1 hybrid maize plants; CTP C)?
Answer: 32.5%

Question: And the “% Injury from V4 2,4-D” value (F1 hybrid maize plants; CTP None)?
Answer: 0%

Question: And the “% Injury from V8 2,4-D” value (F1 hybrid maize plants; CTP None)?
Answer: 0%

Question: What about the “% Injury from V4 Quizalofop” value (F1 hybrid maize plants; CTP None) of the same molecule?
Answer: 85%

Question: And the “% Injury from V8 Quizalofop” value (F1 hybrid maize plants; CTP None)?
Answer: 90%

B2: MON-HT9: engineered oxygenase protein, amino acid sequence SEQ ID NO:40 (protein)
chain: MHAALTPLTNKYRFIDVQPLTGVLGAEITGVDLREPLDDSTWNEILDAFHTYQVIYFPAQQITNEQHISFSRRFGPVDPVPLLKSIEGYPEVQMIRREANESGRILGDDWHTDSTFLDAPPAAVVMRAIEVPEYGGDTGFLSMYSAWDTLSDTMKATIEGLNVVHSATRVFGSLYQAQNWRFSNTSVKVMDVDAGDRETVHPLVVSHPVTGRRALYCNQVYCQRIEGMTDAESKCLLQFLYEHATKFDFTCRVRWKKDQVLVWDNLCTMHRAVPDYAGKFRYLTRTTVAGDRPAR
Question: For B2, which “Vmax Quizalofop” value [1, 2] is on record?
Answer: 0.53 (−0.02) umol herbicide product mg enzyme-1 min-1

Question: And the Km [1, 3]?
Answer: 100 µM

Question: And the “Km 2,4-D” value [1, 4]?
Answer: NDB

Question: And the “Vmax 2,4-D” value [1, 4]?
Answer: NDB

Question: What about the “% Injury from V4 2,4-D” value (F1 hybrid maize plants; CTP A) of the same molecule?
Answer: 20%

Question: And the “% Injury from V8 2,4-D” value (F1 hybrid maize plants; CTP A)?
Answer: 40%

Question: And the “% Injury from V4 Quizalofop” value (F1 hybrid maize plants; CTP A)?
Answer: 5%

Question: And the “% Injury from V8 Quizalofop” value (F1 hybrid maize plants; CTP A)?
Answer: 5%

B3: MON-HT10: engineered oxygenase protein, amino acid sequence SEQ ID NO:43 (protein)
chain: B2 chain with T21C, A59G, Q61A, S69A, R271L, A277D, R292K, A294S
Question: For B3, which “Vmax Quizalofop” value [1, 2] is on record?
Answer: 0.78 (−0.05) umol herbicide product mg enzyme-1 min-1

Question: And the Km [1, 3]?
Answer: 130 µM

Question: What about the “Km 2,4-D” value [1, 4] of the same molecule?
Answer: NDB

Question: What about the “Vmax 2,4-D” value [1, 4] of the same molecule?
Answer: NDB

Question: And the “% Injury from V4 2,4-D” value (F1 hybrid maize plants; CTP A)?
Answer: 28%

Question: And the “% Injury from V8 2,4-D” value (F1 hybrid maize plants; CTP A)?
Answer: 38.33%

Question: What about the “% Injury from V4 Quizalofop” value (F1 hybrid maize plants; CTP A) of the same molecule?
Answer: 0%

Question: What about the “% Injury from V8 Quizalofop” value (F1 hybrid maize plants; CTP A) of the same molecule?
Answer: 0%
